Reference: article PMC2903445 (Proteins, 2010)
Like-named read-outs stand apart in the source and are kept apart here. Ends that are not written are not given here.

Columns and labels:
Experiment in all cases: fluorescence polarisation
Gαi1 K248E, S252L = Gαi1 K248E, S252L (human, UniProt P63096 26-354, K248E | S252L)
Gαi1 F223V, L249F [1] = molecular target: T1, Gαi1 F223V, L249F (human, UniProt P63096 26-354, F223V | L249F)
[2] = molecular target: T2, Gαi1 (N-terminal-truncated, hexahistidine-tagged human Gαi1), wild type (human, UniProt P63096 26-354)
Gαi1 F223V, L249F [3] = molecular target: T1, Gαi1 F223V, L249F; remark: listed apart in the source
[4] = molecular target: T2, Gαi1 (N-terminal-truncated, …); remark: listed apart in the source
[5] = molecular target: Gαi1 F223V, L249F, Q147L, E245L (human, UniProt P63096 26-354, F223V | L249F | Q147L | E245L)
Gαi1 I78S, A111Q = Gαi1 I78S, A111Q (human, UniProt P63096 26-354, I78S | A111Q)
Gαi1 E245L, L249A = Gαi1 E245L, L249A (human, UniProt P63096 26-354, E245L | L249A)
Chain of Gαi1 E245L, L249A (P63096 26-354 E245L/L249A): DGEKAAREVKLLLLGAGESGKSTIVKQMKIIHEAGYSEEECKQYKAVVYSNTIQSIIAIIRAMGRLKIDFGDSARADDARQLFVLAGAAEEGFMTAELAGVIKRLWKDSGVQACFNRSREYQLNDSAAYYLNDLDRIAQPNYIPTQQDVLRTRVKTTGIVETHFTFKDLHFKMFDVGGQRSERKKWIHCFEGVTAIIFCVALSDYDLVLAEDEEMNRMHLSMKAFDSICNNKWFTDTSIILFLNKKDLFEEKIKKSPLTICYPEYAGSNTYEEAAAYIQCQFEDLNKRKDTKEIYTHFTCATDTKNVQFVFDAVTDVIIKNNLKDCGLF

T2 sequence (P63096 26-354): as the sequence (P63096 26-354 E245L/L249A) above, with L220E, A224L counted along it
Chain of Gαi1 K248E, S252L (P63096 26-354 K248E/S252L): as the sequence (P63096 26-354 E245L/L249A) above, with L220E, K223E, A224L, S227L counted along it
T1 sequence (P63096 26-354 F223V/L249F): as the sequence (P63096 26-354 E245L/L249A) above, with F198V, L220E, A224F counted along it
Chain of Gαi1 I78S, A111Q (P63096 26-354 I78S/A111Q): as the sequence (P63096 26-354 E245L/L249A) above, with I53S, A86Q, L220E, A224L counted along it
Chain of Gαi1 F223V, L249F, Q147L, E245L (P63096 26-354 Q147L/F223V/E245L/L249F): as the sequence (P63096 26-354 E245L/L249A) above, with Q122L, F198V, A224F counted along it

Binder	Kd (Gαi1 K248E, S252L) [nM]	Kd [2] [nM]	further results
DIEGLVEKLNRVQSSGAHDQRGLLRKEDLVLPEFLQ (domain or fragment, UniProt O08773 496-531, looked up, also: 6-IAF fluorescein on the unique Cys (not in given chain)) [GoLoco motif of RGS14 (496-531, Tenascin fusion) L503K]	80 ± 10	–	–
DIEGLVELANRVQSSGAHDQRGLLRKEDLVLPEFLQ (domain or fragment, UniProt O08773 496-531, looked up, also: 6-IAF fluorescein on the unique Cys (not in given chain)) [GoLoco motif of RGS14 (496-531, Tenascin fusion) L504A]	–	2400 ± 1000	Kd (Gαi1 F223V, L249F [1]): ~5000 nM; Kd (Gαi1 F223V, L249F [3]): > 5000 nM
DIEGLVELANRVQSSGAHDQRGLLRKEDLVLPEWLQ (domain or fragment, UniProt O08773 496-531, looked up, also: 6-IAF fluorescein on the unique Cys (not in given chain)) [GoLoco motif of RGS14 (496-531, Tenascin fusion) L504A, F529W]	–	> 5000	Kd [4]: ~5000 nM; Kd [5]: 40 ± 100 nM
DIEGLVELLNRVQSSGAHDQRGLTRKEDLVLPEFLQ (domain or fragment, UniProt O08773 496-531, looked up, also: 6-IAF fluorescein on the unique Cys (not in given chain)) [GoLoco motif of RGS14 (496-531, Tenascin fusion) L519T]	–	16000 ± 5000	Kd (Gαi1 I78S, A111Q): > 20000 nM
DIEGLVELLNRMQSSGAHDQRGLLRKEDLVLPEFLQ (domain or fragment, UniProt O08773 496-531, looked up, also: 6-IAF fluorescein on the unique Cys (not in given chain)) [GoLoco motif of RGS14 (496-531, Tenascin fusion) V507M]	–	1040 ± 60	Kd (Gαi1 E245L, L249A): 50 ± 10 nM
DIEGLVELLNRVQSSGAHDQRGLLRKEDLVLPEFLQ (domain or fragment, UniProt O08773 496-531, looked up, also: 6-IAF fluorescein on the unique Cys (not in given chain)) [GoLoco motif of RGS14 (residues 496-531) expressed as a fusion to Tenascin, wild type]	320 ± 60	100 ± 20	–
